Key:
[1] = molecular target: C-terminal domains of the flavodiiron protein CD1623 from Clostridium difficile 630 (FDP_F_Cter), residues 401-843 (Clostridium difficile 630); assay: SEC; each protein loaded separately at room temperature on a 25 mL Superdex S-200 10/300 GL column; 20 mM Tris-HCl pH 7.5, 18% glycerol, 150 mM NaCl; calibrated with mass standards; data not shown
[2] = molecular target: Class F flavodiiron protein CD1623 from Clostridium difficile 630 (FDP_F) (Clostridium difficile 630); assay: as above

stoichiometry N [1]	stoichiometry N [2]	Substance
2		C-terminal domains of the flavodiiron protein CD1623 from Clostridium difficile 630 (FDP_F_Cter), residues 401-843 (domain or fragment)
	2	Class F flavodiiron protein CD1623 from Clostridium difficile 630 (FDP_F) (enzyme)

From article PMC6033852
